According to paper PMC6494882, “Inhibition of MYC by the SMARCB1 tumor suppressor”:

Biological target: MAX:MAX (UniProt P61244 1-160)
Assay: EMSA; no SNF5; 15 mM Tris-HCl pH 7.9, 15% glycerol, 100 mM KCl, 0.15 mM EDTA, 0.075% NP-40, 7.5 mM 2-mercaptoethanol, 40 ng poly(dI-dC), 375 ng/ul BSA, 25 fmol probe, 10-15 ul, 30 min, room temperature; SUMO-BAF155(533-580) added to equalize total protein in SNF5 experiments
Details: protein: recombinant; tags: 6xHis; chain copies: 2; label: 3'-biotin

MAX:MAX, sequence (P61244 whole entry): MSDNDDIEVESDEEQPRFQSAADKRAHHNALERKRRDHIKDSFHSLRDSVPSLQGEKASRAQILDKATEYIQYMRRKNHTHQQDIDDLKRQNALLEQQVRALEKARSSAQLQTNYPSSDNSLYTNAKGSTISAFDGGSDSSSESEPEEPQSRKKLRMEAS

B1: wild-type E-box probe (dsDNA)
DNA 1: GCTCAGGGACCACGTGGTCGGGGATC
DNA 2: GATCCCCGACCACGTGGTCCCTGAGC
binding result: binds
